The supplement of paper PMC12764529
± gives the half width of the 95% confidence interval.

Tests used:
[1] = folding stability dG unfold from trypsin proteolysis; higher = more stable
How it was run: (§1)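 Only designs with AlphaFold2 dimer inter-PAE above 15 were retained; each was a mini-protein under 80 residues with no cysteine, in a PA-tagged cDNA display construct. After digestion with trypsin and chymotrypsin and sequencing, K50 was inferred by Bayesian fitting of counts, and unfolding free energy was derived per protease or combined against a sequence-predicted unfolded-state K50 and a shared folded-state K50.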

[2] = folding stability dG unfold from chymotrypsin proteolysis; higher = more stable
How it was run: as §1

[3] = folding stability dG unfold (combined trypsin and chymotrypsin); higher = more stable
How it was run: as §1

| Sequence | folding stability dG unfold [1] [kcal/mol] | folding stability dG unfold [2] [kcal/mol] | folding stability dG unfold [3] [kcal/mol] |
| --- | --- | --- | --- |
| SAMIVVTLTINPITGKPILIFDPGVGVYAIDPETGEPHEATVDGDTLTLNFGNRPILLTPEAVIPPEELSAG [r14_208_TrMRF] | 0.94 ± 0.017 | 1.41 ± 0.079 | 1.21 ± 0.067 |
| SAGGSAGGSWEWITAEEALKRAREENPPGKPIEFHFEDPWYFTVRFDGEDPNDVTIEWVPLEKSAGGSAGGS [r12_648_TrROS] | 1.39 ± 0.087 | 1.47 ± 0.18 | 1.4 ± 0.2 |
| SAGGSAGGSAGGSDGALIFIIHIKMEMELEPNPDGPPKWDMDWDIEPTWIQIDDPEDFKSAGGSAGGSAGGS [r4_450_TrROS] | 1.59 ± 0.13 | 2.48 ± 0.15 | 2.19 ± 0.21 |
| SAGGSAGGSAGGGPAPGKGLVVKLEPEEFEFENFRLIVVKAVKDDKLIAEIAYLISPDESAGGSAGGSAGGS [r10_628_TrMRF] | 1.05 ± 0.12 | 0.823 ± 0.18 | 0.904 ± 0.12 |
| SAGMEPVSIKITKIEKTPENKDYVIVTVTPPDGVPTEIKVPIEFYKSGKLKNATAEELVKLFPEYKLESAGG [r19_74_JUSTAS] | 1.13 ± 0.065 | 2.68 ± 0.045 | 2.28 ± 0.12 |
| SAGGKVKALIIPAPDEPGKPVYLKIIHPDGEIVYPLPNDITEEEAKAAAIELGEENGLDLDEIEIAESAGGS [r16_753_TrMRF] | 0.537 ± 0.032 | 0.893 ± 0.065 | 0.746 ± 0.099 |
| SAEVIEKTLTETVIGDTVVTPSVVEFPDGSVVEKVTTVSPDGTVTVTTYYFPPDGVRTFLSTTTVPLDLSAG [r14_680_JUSTAS] | 0.585 ± 0.03 | 1.16 ± 0.07 | 0.939 ± 0.07 |
| SAGKNEVLKVDIEYDPETGIIRLKTTYPNGLKEEKLIFKIPGTGKWYTAWNSEYEEGKEYQDFGILPESAGG [r19_394_TrMRF] | 1.98 ± 0.15 | 2.35 ± 0.05 | 2.02 ± 0.12 |
| SAGMPVTVTSTSDPENGSTTVPRTHPTGPVVTVTITKLPPGELRVTVDAGTTVTLYTLPPDALTTFTTPSAG [r5_14_JUSTAS] | 0.51 ± 0.16 | 0.13 ± 0.18 | 0.339 ± 0.11 |
| SAGGSAGGSAGPKPPPVYRLRIVNPDGEVYEFEVPADMSPEEIAKRLGLPPGARVELEKVSAGGSAGGSAGG [r11_340_TrROS_Hall] | 2.59 ± 0.17 | 3.35 ± 0.081 | 3.28 ± 0.28 |
| SWNLRLEIEEVEIEPSDNWIIIMVRVEIEGRNPDDPNKPRPVFEVWVMIPIPLPPPKPKPDPDDPAAAKDSA [r9_357_TrROS] | 2.29 ± 0.25 | 3.5 ± 0.15 | 2.8 ± 0.43 |
| SAGGMKTFEKPMTAEEVMALLEEIAKKGNVNVTIETEGKTYEVDPSKAKPIPPENVTAKITITELPKSAGGS [r16_628_JUSTAS] | -0.051 ± 0.15 | -0.182 ± 0.17 | 0.186 ± 0.28 |
| SAGGGSTVTTTTPDGTSVSTTTLPDGTVTATATYPDSTVSTTYDPATNTTTVTTTSGGTTVATTTVAASAGG [r13_748_JUSTAS] | 2.48 ± 0.11 | 1.39 ± 0.031 | 1.89 ± 0.065 |
| SAGGSAGGGGMMKTITIPLEELKAKLAKETGKPLTIEEIKEALKKEGIKLLSVDKEKGTITISESAGGSAGG [r6_767_JUSTAS] | 2.4 ± 0.1 | 1.73 ± 0.09 | 2.16 ± 0.13 |
| SAGGSAGGSAMITIKVSPDVPVPSNTPITLPNGKKVKATVTPVPSPEDGTPVLKITLDPNLISAGGSAGGSA [r18_476_JUSTAS] | -0.934 ± 0.24 | 0.891 ± 0.023 | 0.446 ± 0.044 |
| SAGKVKVEKLEDGTVIVEAEIKDPETDEYIKIFDLVTFNPETGYALVPRLVIKGDKPFTFPVLVKLPKSAGG [r19_289_TrMRF] | 0.0636 ± 0.067 | 0.931 ± 0.11 | 0.671 ± 0.12 |
| SGVSVKVTVEGNTITIEVSADAKIKIEVTFPTKKATYEVEVEPGKPVTFTIPLPKDVPKDAFIDKIDIGGSA [r9_1152_TrMRF] | 1.98 ± 0.11 | 3.56 ± 0.12 | 3.03 ± 0.17 |
| SADDDEEQKEKQKPKPQIPIKPVATYNFPDHPFEIWEIDPDNGRIIIRFWGNGWWYEMDPEDGEWEWYPSAG [r14_359_TrROS] | 1.81 ± 0.064 | 2.26 ± 0.059 | 2.14 ± 0.14 |
| SAGGSASIKVTYRFPPDTTVEQAIEDLIAYLEAQTNVKISIPSYTVEREGDYLLVTADILIEPLPESAGGSA [r15_105_TrMRF] | 4.18 ± 0.086 | 4.61 ± 0.056 | 4.59 ± 0.073 |
| SAGGSAGGSAGKPEIEMEIETRTVRLPDGYLLRFSRMRITLPDGSKFEFLSVEIIRLEDLSAGGSAGGSAGG [r17_312_TrROS_Hall] | 3.88 ± 0.31 | 5.56 ± 0.14 | 5.38 ± 0.36 |
| SAGGSAGGWIEINILVPLKPGQTPSELADEIAQEFQNQHGWEIKIDDVYPTDNYVWHKIEITPPSAGGSAGG [r6_639_TrROS] | 0.864 ± 0.031 | 1.49 ± 0.055 | 1.29 ± 0.083 |

| Sequence | folding stability dG unfold [1] [kcal/mol] | folding stability dG unfold [2] [kcal/mol] | folding stability dG unfold [3] [kcal/mol] |
| --- | --- | --- | --- |
| SAGGSAELVSVDVELEGRYLRVRARFRLPDGREVEVEVRFSLPGVPPAPPVFPYRDPETGELRLGLSAGGSA [r15_335_TrMRF] | 3.27 ± 0.056 | 3.614 ± 0.023 | 3.57 ± 0.14 |
| SAGGSAGGSAGGSDKDPDKMKPKPVFEMEIVTYEWEKDGDGDWEPLSVEVQRIRVYAMDSAGGSAGGSAGGS [r4_288_TrROS] | 3.13 ± 0.14 | 4.51 ± 0.23 | 4.19 ± 0.19 |
| SKLKIEDIKWNPNYPGMYEFKIKLPDKPATIQIPHDPNNGRFMMEIWYPDKPVTVQFDSWDDALAFIKELSA [r9_366_TrROS] | 1.6 ± 0.046 | 1.35 ± 0.16 | 1.52 ± 0.11 |
| SAGGSAGGSAGGSRMRLEITVRDENGLLVRLEVEFEEKDGELEMKVRAEVFPLPEEEEESAGGSAGGSAGGS [r4_168_TrROS_Hall] | 0.939 ± 0.04 | 2.71 ± 0.059 | 2.44 ± 0.1 |
| SAGGSAGGSAGGMKIIKLEDDYYLIPFDSPEQLKAYTDIFEKLGLPVVVLPDGRLLVKGSAGGSAGGSAGGS [r10_1027_TrMRF] | 2.39 ± 0.053 | 2.52 ± 0.026 | 2.49 ± 0.054 |
| SAGGSAGGSKTVEITITRKDGKKLKIEFYPDGYIKIYDSNGKLVKTIKVDPNASIEEILKALKSAGGSAGGS [r12_990_TrROS_Hall] | 3.31 ± 0.12 | 3.38 ± 0.038 | 3.39 ± 0.083 |
| FTMDEMKELADNIADNLAKEDGYKIKSVNIDATIPIPVYMKVRPDPNGEPRWEMHWMPIKVKINVEIKPPNS [r1_91_TrROS] | 2.02 ± 0.18 | 2.55 ± 0.09 | 2.55 ± 0.36 |
| SAGGSMKEIVELGEVEFEEDSVALKVKFKVKLVFYDPETGEKVEEREEELEVYFGGDTLEFSPVEGSAGGSA [r2_271_TrMRF] | 1.49 ± 0.045 | 2.373 ± 0.02 | 2.08 ± 0.11 |
| SAGGSADENGKPKPTLIIKIEVEHPNGQKFPLSFIFKSPEEAEEIANELANNGYEVNIRLMPLDQISAGGSA [r15_906_TrROS] | 1.07 ± 0.024 | 1.71 ± 0.044 | 1.55 ± 0.059 |
| SAGGSAGGSAGGLWLTFNFRLTFFNPDGQAMEIEIPIEIRIPPPPVTVPDPDGEEYKYDSAGGSAGGSAGGS [r10_330_TrROS] | 2.39 ± 0.07 | 3 ± 0.069 | 2.87 ± 0.18 |
| SMTTRESTIDASIPGYTVSKVSVTTLPGGERKITITLPSGKVLVLSTPADPALVPLTVTSEFSPEEVAAKSA [r9_1075_JUSTAS] | 0.634 ± 0.057 | 0.0702 ± 0.097 | 0.395 ± 0.051 |
| SAGGSAVPAEAKKKVFLKPVKVNIPLPGNYEIVEIDPKTGKIVIKVPGSSKTLVVDLKSGKVYEFGSAGGSA [r15_452_TrMRF] | 1.19 ± 0.061 | 1.78 ± 0.085 | 1.51 ± 0.14 |
| SAGSYKLVVKAKAPKGPARIRVFVRLPGGEEKPVAEAEVGSGEVADIEITFPSGKPIDPKNIRVEIVPPSAG [r5_287_TrMRF] | 1.88 ± 0.03 | 1.65 ± 0.066 | 1.8 ± 0.058 |
| SAGGSAEKKVLKVKVEVVSVEVNEDGTVTVTAKVTFEDGLELTVTVTFDKETGELTIEVELRPLPPSAGGSA [r15_401_TrROS_Hall] | 2.42 ± 0.22 | 3.48 ± 0.15 | 3.13 ± 0.15 |
| SAGGERLTLEELEELLKNLPPGVEEVTITLKLEVEVRTEVRLNEDGSLETRTETRVTTELTLTLPKESAGGS [r16_708_TrROS_Hall] | 2.5 ± 0.34 | 4.01 ± 0.4 | 3.46 ± 0.25 |
| SAGGSAGGSAGGWAFMWVIEIEMPPEQMPPEDMKKFPNMRIEIEPYWVPIKIDPENGELRSAGGSAGGSAGG [r17_310_TrROS] | 1.71 ± 0.075 | 2.68 ± 0.04 | 2.5 ± 0.19 |
| SAGGSAGGSAGGPSPSTPVTVTVTFPETGETVTLEVTDLEELRERFPDRPVEITVSPGGSAGGSAGGSAGGS [r10_1004_JUSTAS] | 2.5 ± 0.064 | 2.11 ± 0.041 | 2.42 ± 0.06 |
| SAGGSAGGSAKKPPVYKIKIKVVNKKTKKEIEIEVEVKAGKTPEEIAKELAKKFGIEKVEIESAGGSAGGSA [r18_58_TrROS_Hall] | 1.14 ± 0.12 | 1.47 ± 0.18 | 1.45 ± 0.27 |
| SAGGMKIEIELEDGYLRVKIYDKDGKLIEEIEIKIEKVEPPPEVEVELSPEELAKKLGVEIEIKEKESAGGS [r16_778_TrROS_Hall] | 1.62 ± 0.18 | 2.38 ± 0.2 | 2.32 ± 0.44 |
| SAGGSAGGSAGGKTIVVELEDGSKATITVDEDGNVTVEVYDEKTGEKKTFTIPAEALKPSAGGSAGGSAGGS [r10_838_TrROS_Hall] | 2.53 ± 0.16 | 2.95 ± 0.066 | 2.73 ± 0.16 |
| SAGEVKIEVEGLPDKTVIRITIPYTAPGVGPSALLAVLKELGLPPETKLLKVEFYEEPKTVEALVVQGSAGG [r19_186_TrMRF] | 1.13 ± 0.088 | 1.72 ± 0.16 | 1.63 ± 0.11 |
